Data published in the supplement of paper PMC7877785.
± gives the uncertainty stated by the source.

Test: self-splicing fitness, log relative to wild type (ln ratio); higher = more splicing; Tetrahymena group I intron in knt gene, E. coli kanamycin selection, DiMSum; sequences stand for … in CUCUCU…GGAGGGAAAAGUUAUCAGGCAUGCACCUGGUAGCUAGUCUUUAAACCAAUAGAUUGCAUCGGUUUAAAAGGCAAGACCGUCAAAUUGCGGGAAAGGGGUCAACAGCCGUUCAGUACCAAGUCUCAGGGGAAACUUUGAGAUGGCCUUGCAAAGGGUAUGGUAAUAAGCUGACGGACAUGGUCCUAACCACGCAGCCAAGUCCUAAGUCAACAGAUCUUCUGUUGAUAUGGAUGCAGUUCACAGACUAAAUGUCGGUCGGGGAAGAUGUAUUCUUCUCAUAAGAUAUAGUCGGACCUCUCCUUAAUGGGAGCUAGCGGAUGAAGUGAUGCAACACUGGAGCCGCUGGGAACUAAUUUGUAUGCGAAAGUAUAUUGAUUAGUUUUGGAGUACUCGUGGUCG
Method in brief: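 Pooled colonies went to amplicon sequencing on an Illumina HiSeq 2500 after six replicate transformations. The plates were LB agar with 100 μg/mL carbenicillin, 50 μM IPTG and 0.2% rhamnose, with or without 25 μg/mL kanamycin, incubated overnight at 37°C or 30°C. The E. coli BL21(DE3) library had all eight P1ex-region intron nucleotides randomised, the intron placed in the knt kanamycin-resistance gene on pET-22b(+). DiMSum fitness is the error-weighted combination of replicate fold changes, kanamycin against none, normalised to wild type.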

Sequence	self-splicing fitness (ln) (30 °C)	self-splicing fitness (ln) (37 °C)
AAUUAGCAAUAUUACGGUCU	-0.43 ± 0.085	0.202 ± 0.099
AAUUAGCAAUAUUACGUAAU	-1.92 ± 0.12	-0.218 ± 0.15
AAUUAGCAAUAUUACGUAGU	-2.9 ± 0.16	-0.462 ± 0.1
AAUUAGCAAUAUUACGUCAC	-3.93 ± 0.36	-2.41 ± 0.33
AAUUAGCAAUAUUACGUCCU	-0.344 ± 0.11	0.561 ± 0.16
AAUUAGCAAUAUUACGUUAG	-4.03 ± 0.28	-3.13 ± 0.26
AAUUAGCAAUAUUACGUUUU	-1.98 ± 0.13	-1.21 ± 0.14
ACAAAGCAAUAUUACGAACU	-0.4 ± 0.055	0.248 ± 0.075
ACAAAGCAAUAUUACGACGU	0.0672 ± 0.047	0.266 ± 0.06
ACAAAGCAAUAUUACGAGCA	-1.56 ± 0.14	-0.49 ± 0.12
ACAAAGCAAUAUUACGAUGA	-0.411 ± 0.048	-0.201 ± 0.058
ACAAAGCAAUAUUACGAUUC	-1.92 ± 0.085	-0.67 ± 0.1
ACAAAGCAAUAUUACGCCAC	-3.01 ± 0.38	
ACAAAGCAAUAUUACGCCUU	-2.01 ± 0.075	-0.625 ± 0.087
ACAAAGCAAUAUUACGCGAA	-2.41 ± 0.096	-1.13 ± 0.092
ACAAAGCAAUAUUACGCGCG	-1.11 ± 0.078	-0.453 ± 0.099
ACAAAGCAAUAUUACGGAGG	-2.23 ± 0.078	-2.17 ± 0.11
ACAAAGCAAUAUUACGUAUG	-3.01 ± 0.12	-2.13 ± 0.15
ACAAAGCAAUAUUACGUCAC	-4.13 ± 0.18	-2.53 ± 0.16
ACAAAGCAAUAUUACGUCGC	-2.42 ± 0.11	-2.23 ± 0.16
ACAAAGCAAUAUUACGUCGG	-2.14 ± 0.11	-0.989 ± 0.12
ACAAAGCAAUAUUACGUCUA	-2.1 ± 0.083	-0.824 ± 0.086
ACAAAGCAAUAUUACGUGUU	-3.59 ± 0.17	-2.61 ± 0.16
ACAAAGCAAUAUUACGUUAC	-4.4 ± 0.22	-2.42 ± 0.22
